Reference: patent publication US20230086603A1 (BOLT BIOTHERAPEUTICS, published 2023)

B1: 19 (antibody, V domains shown)
VH: QVQLVQSGAEVKKPGASVKVSCKASGYTFTSHYMHWVRQAPGQGLEWMGWMNPNSGNTGYAQKFQGRVTMTRDTSTSTVYMELSSLRSEDTAVYYCARERFLGGMDVWGQGTTVTVSS
VL: DIQMTQSPSSLSASVGDRVTITCRASQSITGWLAWYQQKPGKAPKLLIYAASSLQSGVPSRFSGSGSGTDFTLTISSLQPEDFATYYCQQSYSTPYTFGQGTKVEIK
B2: 20 (antibody, V domains shown)
VH: QVQLVQSGAEVKKPGASVKVSCKASGYTFTDYYMHWVRQAPGQGLEWMGWMHPNSGHTGYAQKFQGRVTMTRDTSTSTVNMELSSLRSEDTAVYYCAREEWLGHFQHWGQGTLVTVSS
VL: DIQMTQSPSSLSASVGDRVTITCRASQSISSWLAWYQQKPGKAPKLLIYDATHLETGVPSRFSGSGSGTDFTLTISSLQPEDFATYYCQQSYSTPITFGQGTRLEIK
B3: 24 (antibody, V domains shown)
VH: QVQLVQSGAEVKKPGASVKVSCKASGDTFTNHYMHWVRQAPGQGLEWMGWMNPNSGHTGYAQRFQGRVTMTRDTSTSTVYMELSSLRSEDTAVYYCAREAVAGPMDVWGQGTTVTVSS
VL: not shown
B4: 11 (antibody, V domains shown)
VH: QVQLVQSGAEVKKPGASVKVSCKASGYTFTNYYIHWVRQAPGQGLEWLGWMNPNGDVAGYADSFQGRVTMTRDTSTSTVYMELSSLRSEDTAVYYCAIDSSGWMRNDAFDIWGQGTLVTVSS
VL: DIQMTQSPSSLSASVGDRVTITCRASQGISQYLAWYQQKPGKAPKLLIYGASNLHSGVPSRFSGSGSGTDFTLTISSLQPEDFATYYCQQTFITPLTFGGGTKVEIK
B5: 2 (antibody, V domains shown)
VH: QVQLVQSGAEVKKPGASVKVSCKASGYTFTSYYMHWVRQAPGQGLEWMGWMNPNSDIAGYAQKFQGRVTMTRDTSTSTVYMELSSLRSEDTAVYYCAIPSIVGAYDAFDIWGQGTLVTVSS
VL: DIQMTQSPSSLSASVGDRVTITCRASQSISSWLAWYQQKPGKAPKLLIYAASSLQSGVPSRFSGSGSGTDFTLTISSLQPEDFATYYCQQSYTTPITFGGGTKVEIK
B6: 14 (antibody, V domains shown)
VH: QVQLVQSGAEVKKPGASVKVSCKASGYRFTTYYVHWVRQAPGQGLEWMGWMNPNTVYTGSAQKFQGRVTMTRDTSTSTVYMELSSLRSEDTAVYYCAREGWGSSGYFDYWGQGTLVTVSS
VL: DIQMTQSPSSLSASVGDRVTITCQASQDISNYLNWYQQKPGKAPKLLIYAASSLQSGVPSRFSGSGSGTDFTLTISSLQPEDFATYYCQQSFTNPVTFGGGTKVEIK
B7: 22 (antibody, V domains shown)
VH: QVQLVQSGAEVKKPGASVKVSCKASGYTFTGYTLHWVRQAPGQGLEWMGWIDPNSGVTSSAQKFQGRVTMTRDTSTSTVYMELSSLRSEDTAVYYCARESEVMMAYFQHWGQGTLVTVSS
VL: DIQMTQSPSSLSASVGDRVTITCQASQDISSYLNWYQQKPGKAPKLLIYAASSLQTGVPSRFSGSGSGTDFTLTISSLQPEDFATYYCQQSYSTPYTFGQGTKLEIK
B8: 23 (antibody, V domains shown)
VH: QVQLVQSGAEVKKPGASVKVSCKASGYTFTGYYMHWVRQAPGQGLEWMGWISPNSGVTDFTQKFQGRVTMTRDTSTSTVYMELSSLRSEDTAVYYCARESWSGEFDYWGQGTLVTVSS
VL: DIQMTQSPSSLSASVGDRVTITCRASQSITTYLNWYQQKPGKAPKLLIYAASSLQGGVPSRFSGSGSGTDFTLTISSLQPEDFATYYCQQSYSTPYTFGQGTKVEIK
B9: 9 (antibody, V domains shown)
VH: QVQLVQSGAEVKKPGASVKVSCKASGHSFTHYYMHWVRQAPGQGLEWMGWMNPDSGSTGYAQKFQGRVTMTRDTSTSTVYMELSSLRSEDTAVYYCARALFPYPFYYYYMDVWGQGTLVTVSS
VL: DIQMTQSPSSLSASVGDRVTITCRASQGIRNDLGWYQQKPGKAPKLLIYSASNLQSGVPSRFSGSGSGTDFTLTISSLQPEDFATYYCQQANSFPFTFGGGTKVEIK
B10: 13 (antibody, V domains shown)
VH: QVQLVQSGAEVKKPGASVKVSCKASGYPFTSYYMHWVRQAPGQGLEWMGWMNPNSDIAGYAQKFQGRVTMTRDTSTSTVYMELSSLRSEDTAVYYCAREGRHGEYLYWGQGTLVTVSS
VL: DIQMTQSPSSLSASVGDRVTITCRASQIISSYLNWYQQKPGKAPKLLIYAASSLQSGVPSRFSGSGSGTDFTLTISSLQPEDFATYYCQQGFSTPFTFGGGTKVEIK
B11: 18 (antibody, V domains shown)
VH: QVQLVQSGAEVKKPGASVKVSCKASGYTFTSYYMHWVRQAPGQGLEWVGWMTPSTGNAGYAQKFQGRVTMTRDTSTSTVYMELSSLRSEDTAVYYCAREEWLGHFQHWGQGTLVTVSS
VL: DIQMTQSPSSLSASVGDRVTITCRASQGISNGLSWYQQKPGKAPKLLIYAASTLQSGVPSRFSGSGSGTDFTLTISSLQPEDFATYYCQQSHSTPLTFGGGTKVEIK
B12: 16 (antibody, V domains shown)
VH: QVQLVQSGAEVKKPGSSVKVSCKASGGTFSSYAISWVRQAPGQGLEWMGGIIPIFGTANYAQKFQGRVTITADESTSTAYMELSSLRSEDTAVYYCARGGYSYGSFQHWGQGTLVTVSS
VL: DIQMTQSPSSLSASVGDRVTITCRASQGISNNLNWYQQKPGKAPKLLIYAATTLQSGVPSRFSGSGSGTDFTLTISSLQPEDFATYYCQQSYSTPYTFGGGTKVEIK
B13: 1 (antibody, V domains shown)
VH: QVQLVQSGAEVKKPGASVKVSCKASGGTFSSYAISWVRQAPGQGLEWMGVINPSAGSTDYAQKFQGRVTMTRDTSTSTVYMELSSLRSEDTAVYYCARDLYPYVVVVAAGSYGMDVWGQGTLVTVSS
VL: DIQMTQSPSSLSASVGDRVTITCRASQGIDSYLAWYQQKPGKAPKLLIYAASSLQSGVPSRFSGSGSGTDFTLTISSLQPEDFATYYCQQSYSTPITFGGGTKVEIK
B14: 36 (antibody, V domains shown)
VH: QVQLVQSGAEVKKPGSSVKVSCKASGGTFSTFGISWVRQAPGQGLEWMGGIIPIFGTANYAQKFQGRVTITADESTSTAYMELSSLRSEDTAVYYCARGGYSYGSFDYWGQGTLVTVSS
VL: DIQMTQSPSSLSASVGDRVTITCRASQGISNNLNWYQQKPGKAPKLLIYATSTLQSGVPSRFSGSGSGTDFTLTISSLQPEDFATYYCQQSYSTPYTFGQGTKVEIK
B15: 17 (antibody, V domains shown)
VH: QVQLVQSGAEVKKPGASVKVSCKASGDTFTRHYVHWVRQAPGQGLEWMGWMSPSSGITGYAQKFQGRVTMTRDTSTSTVYMELSSLRSEDTAVYYCARVRWSSDAFDIWGQGTLVTVSS
VL: not shown
B16: 12 (antibody, V domains shown)
VH: QVQLVQSGAEVKKPGASVKVSCKASGGTFSNYMYHWVRQAPGQGLEWMGWISTYHGSTNYAQKFQGRVTMTRDTSTSTVYMELSSLRSEDTAVYYCARDARGYSGYDLWGQGTLVTVSS
VL: DIQMTQSPSSLSASVGDRVTITCRASQIIGNYLAWYQQKPGKAPKLLIYHASILETGVPSRFSGSGSGTDFTLTISSLQPEDFATYYCQQSYSTPTFGGGTKVEIK

Each binder was assayed against T1, human PD-L1 (hPD-L1) (human, UniProt Q9NZQ7 19-290) (assay: flow cytometry on JIMT-1 cells expressing endogenous human PD-L1; anti-human IgG Fc secondary; geometric MFI).
T1 construct: Endogenous hPD-L1 on JIMT1 (JIMT-1) cells; also called programmed death-ligand 1; CD274
T1 sequence (Q9NZQ7 19-290 limits assumed): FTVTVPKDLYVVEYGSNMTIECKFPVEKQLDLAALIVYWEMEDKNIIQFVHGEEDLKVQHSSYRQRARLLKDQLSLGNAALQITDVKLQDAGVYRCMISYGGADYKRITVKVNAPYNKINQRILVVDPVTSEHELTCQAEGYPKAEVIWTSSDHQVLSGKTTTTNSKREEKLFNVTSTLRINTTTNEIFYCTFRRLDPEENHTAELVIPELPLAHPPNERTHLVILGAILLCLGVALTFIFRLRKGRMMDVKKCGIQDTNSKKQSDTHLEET
Experimental: Binding of the binding agents of an embodiment of the invention to human PD-L1 (hPD-L1) on cell surfaces was assessed by incubating the binding agents with JIMT1 cells that express endogenous hPD-L1. Briefly, the binding agents were diluted serially in FACS buffer (PBS+1% FBS+5 mM EDTA, pH 7.4) at 4° C. Diluted binding agents were applied to JIMT1 cells (˜1×10⁵-2×10⁵ per well) and incubated at 4° C. […] After unbound secondary antibody was washed out, cells were resuspended in FACS buffer plus 2% formaldehyde and analyzed by flow cytometry. The intensity of fluorescence, expressed as geometric mean fluorescence intensity, was used to determine anti-PDL1 binding agent binding to hPD-L1 on cell surface.
B1: binds. B2: binds. B3: binds. B4: binds. B5: binds. B6: binds. B7: binds. B8: binds. B9: binds. B10: binds. B11: binds. B12: binds. B13: binds. B14: binds. B15: binds. B16: binds.
